Reference: publication PMC3172369 (Biochemistry, 2011)

Columns and labels:
crystal structure = target: the molecule itself; experiment: crystal structure
native gel or EMSA = target: the molecule itself; experiment: native gel or EMSA

B1: human Npm2-core domain (T15-E122) (domain or fragment, UniProt Q86SE8 15-122, looked up)
chain: TTVLWGCELSQERRTWTFRPQLEGKQSCRLLLHTICLGEKAKEEMHRVEILPPANQEDKKMQPVTIASLQASVLPMVSMVGVQLSPPVTFQLRAGSGPVFLSGQERYE
stoichiometry N (crystal structure): 5

B2: Np-core labelled at Cys41 with a DyLight dye (domain or fragment, Xenopus laevis, UniProt P05221 11-124, looked up)
chain: LEKPVSLIWGCELNEQDKTFEFKVEDDEEKCEHQLALRTVCLGDKAKDEFNIVEIVTQEEGAEKSVPIATLKPSILPMATMVGIELTPPVTFRLKAGSGPLYISGQHVAMEEDY
modifications: DyLight 549-maleimide or DyLight 649-maleimide on Cys41
stoichiometry N (native gel or EMSA): 5
